Experimental data taken from PMC3841102, “Activation of Smurf E3 Ligase Promoted by Smoothened Regulates Hedgehog Signaling through Targeting Patched Turnover” (PLoS Biology, 2013).
Positions count from the first letter of the chain named. Numbers in names are those of the source.

T1: His:Smurf protein (full length Drosophila Smurf) (Drosophila, UniProt Q9V853 1-1061)
T1 construct: Smurf E3 ligase, Drosophila, full length; Vector pET28a; also called Smurf in pET28a; source: E. coli, purified (Ni Sepharose)
T1 sequence (looked up): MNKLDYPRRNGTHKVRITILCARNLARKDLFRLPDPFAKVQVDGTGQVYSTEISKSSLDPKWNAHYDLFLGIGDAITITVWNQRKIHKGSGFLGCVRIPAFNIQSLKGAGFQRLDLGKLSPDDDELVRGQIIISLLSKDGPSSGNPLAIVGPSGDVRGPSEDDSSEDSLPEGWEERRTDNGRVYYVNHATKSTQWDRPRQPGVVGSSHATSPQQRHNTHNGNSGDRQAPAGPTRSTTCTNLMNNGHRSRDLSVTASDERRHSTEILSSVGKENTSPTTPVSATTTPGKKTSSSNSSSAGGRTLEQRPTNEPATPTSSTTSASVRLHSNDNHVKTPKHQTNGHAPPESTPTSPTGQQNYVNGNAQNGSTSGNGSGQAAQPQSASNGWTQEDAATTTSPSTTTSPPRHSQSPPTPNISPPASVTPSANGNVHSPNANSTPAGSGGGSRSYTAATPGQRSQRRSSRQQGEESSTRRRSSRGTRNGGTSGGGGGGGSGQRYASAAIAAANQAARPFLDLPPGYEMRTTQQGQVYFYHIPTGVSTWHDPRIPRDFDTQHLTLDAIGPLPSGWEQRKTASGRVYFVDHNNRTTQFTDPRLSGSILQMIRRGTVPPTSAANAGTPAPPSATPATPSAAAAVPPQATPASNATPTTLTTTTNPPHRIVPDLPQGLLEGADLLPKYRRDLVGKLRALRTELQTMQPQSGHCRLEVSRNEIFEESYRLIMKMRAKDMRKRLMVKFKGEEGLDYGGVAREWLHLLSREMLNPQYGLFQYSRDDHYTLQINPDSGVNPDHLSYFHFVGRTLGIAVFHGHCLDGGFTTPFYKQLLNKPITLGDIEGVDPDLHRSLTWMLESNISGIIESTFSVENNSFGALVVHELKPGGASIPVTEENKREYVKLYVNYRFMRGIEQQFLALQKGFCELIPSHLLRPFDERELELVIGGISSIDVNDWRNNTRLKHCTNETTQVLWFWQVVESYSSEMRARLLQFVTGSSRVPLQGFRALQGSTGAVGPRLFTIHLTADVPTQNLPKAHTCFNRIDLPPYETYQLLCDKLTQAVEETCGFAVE

B1: Ptc^CTD (C-terminal tail of Ptc) expressed in S2 cells (domain or fragment, Drosophila, UniProt P18502 1101-1286, looked up)
chain: ILLSMVGPEAELVPLEHPDRISTPSPLPVRSSKRSGKSYVVQGSRSSRGSCQKSHHHHHKDLNDPSLTTITEEPQSWKSSNSSIQMPNDWTYQPREQRPASYAAPPPAYHKAAAQQHHQHQGPPTTPPPPFPTAYPPELQSIVVQPEVTVETTHSDSNTTKVTATANIKVELAMPGRAVRSYNFTS
notes: Patched (Ptc), Drosophila, C-terminal tail; also called C-tail of Ptc; Ptc C-tail; source: S2 cells, transfected, in lysate
B2: GST:Flag:Ptc^CTD fusion protein (domain or fragment, Drosophila, UniProt P18502 1101-1286, looked up)
chain: B1 chain
notes: Patched (Ptc), Drosophila, C-terminal domain, residues 1101-1286; Vector pGEX4T-1; also called Flag tagged Ptc^CTD (1101-1286 a.a) in pGEX4T-1; source: E. coli, purified (glutathione agarose beads, batch)
B3: Ptc^CTD with the K1261R mutation, in S2 cells (domain or fragment, Drosophila, UniProt P18502 1101-1286, looked up)
chain: B1 chain with K161R
notes: Patched (Ptc), Drosophila, C-terminal domain with K1261R; source: S2 cells, transfected, in lysate

Legend:
[1] = target: the molecule itself; test: native gel or EMSA; lysates of S2 cells transfected for 48 h; native polyacrylamide gel and Western blot
[2] = target: T1, His:Smurf protein (full length …); test: pull-down; GST fusion protein loaded glutathione beads incubated with 200 ng purified His:Smurf; 50 mM Tris-Cl pH 8.0, 200 mM NaCl, 1 mM EDTA, 1% NP-40, 2% BSA, 10 mM DTT, 1 mM PMSF; 4°C, 1 h; Western blot; details: both partners purified

Binder	stoichiometry N [1]	binding result [2]
B1	3	–
B2	–	binds
B3	3	–
